Data on 2 substances can be found in paper PMC5183740.

The target of assay [1] is SA-HA2 (streptavidin core fused to residues 76-130 of HA2 of A/PARIS/2590/2009 (H1N1)) (Streptomyces avidinii | influenza A virus A/PARIS/2590/2009 (H1N1)). Put plainly: SDS-PAGE of unheated samples.
The target of assay [2] is SA-NP (streptavidin core fused to the nucleoprotein NP of A/PARIS/2590/2009 (H1N1)) (Streptomyces avidinii | influenza A virus A/PARIS/2590/2009 (H1N1)). Put plainly: SDS-PAGE of unheated samples.

By stoichiometry N is commonly meant a count of units in the complex or per binding partner.

“SA-HA2 (streptavidin core fused to residues 76-130 of HA2 of A/PARIS/2590/2009 (H1N1))” gave a stoichiometry N in assay [1] of 4.
“SA-NP (streptavidin core fused to the nucleoprotein NP of A/PARIS/2590/2009 (H1N1))” returned a stoichiometry N in assay [2] of 4.
